3 substances from publication PMC6946400 can be followed below.

Data set [1] concerns VASH1 full-length 44 kDa. The data set can be described thus: SPR. The note with it: single-cycle kinetics; HBS-EP: 10 mM Hepes pH 7.4, 150 mM NaCl, 3 mM EDTA, 0.005% surfactant P20 (stated for immobilization); SA chip, Biacore T200, protein 16.25-300 nM, 1:1 ….
In data set [2] the test system is VASH1 27-kDa N-terminal part-GST. The experiment in a line: SPR. The following applies: HBS-EP: 10 mM Hepes pH 7.4, 150 mM NaCl, 3 mM EDTA, 0.005% surfactant P20 (stated for immobilization); SA chip, Biacore T200, protein 16.25-300 nM, 1:1 ….

As for EMCV IRES, the Kd in data set [1] worked out at 9.6 nM. Regarding FGF1 IRES, the results for the Kd in data set [2] and in data set [1] were 2800 nM and 6.5 nM, respectively. In the case of VEGFAa IRES, the Kd in data set [1] was 8 nM.
